The target of experiment [1] is GFP-His6 (eGFP) (Aequorea victoria) [GFP: P42212]. As to the kind of experiment: label under gel lane; legend: in vitro Kd for GFP by SPR; the asterisk is not explained on the sheet. In general terms: SPR reads the build-up and loss of mass on a sensor chip optically.
The target in experiment [2] is S. cerevisiae Nup84-GFP (S. cerevisiae) (UniProt P52891). As to the kind of experiment: time course of Nup84-GFP isolation from yeast with dimer-conjugated magnetic beads, Coomassie band quantification.

Take “GFP-Trap nanobody (ChromoTek GmbH) (VHH)”: the Kd (as a rule, the free concentration of one partner at which half of the binding sites on the other are occupied at equilibrium, for simple one-to-one binding) in experiment [1] is 0.23 nM.

In experiment [2], “LaG16-LaG2 fusion with a flexible glycine-rich linker (G4S)” displayed a relative yield of affinity isolation, percent of maximum, after 5 minutes of 80% and a relative yield of affinity isolation, percent of maximum, after 10 minutes of 90%.

The values above are taken from US20170212130A1.
